Data on three molecules can be found in publication PMC4347215 (Nature Communications, 2015).

Assay [1] has as its target recombinant CA/09 NA (neuraminidase of A/California/07/2009) (Influenza A virus A/California/07/2009 …, UniProt C3W5S3). Description: BLI. To be noted: both partners purified.
For assay [2], the target named is NA (CA/09) as antigen of the ELISA of Supplementary Fig. 5 (Influenza A virus A/California/07/2009 …, UniProt C3W6G3, strain). Description: ELISA.
Assay [3] concerns the target recombinant CA/09 NA, thrombin-cleaved (His-tag depleted) (influenza A virus A/California/07/2009 …, UniProt C3W5S3, N-linked glycans seen at Asn88, Asn146 and Asn235). Description: crystal structure. To be noted: both partners purified.

B1: monoclonal antibody CD6 (whole IgG) (antibody, V domains shown)
VH: QVKLQESGGGLVQPKGSLKLSCAASGFTFNTYAMNWVRQAPGKGLEWVARIRSKSNNYATFYADSVKDRFTISRDDSQSMLYLQMHNLKTDDTAMYYCVRPSIYYYASGYLDVWGAGTTVTVSS
VL: QIVLSQSPAILSASPGEKVTMTCRTSSSVSYMHWYQQKPGSSPKPWIYATSNLASGVPFRFSGSGSGTSYSLTISRVEAEDAATYYCQQWNSNPPTFGGGTKLEIK
notes: copies: 2 + 2
B1: the Kd in assay [1] was about 95 nM. For the same molecule, the binding result in assay [2] is listed as “binds”.

B2: CD6 Fab (Fab, V domains shown)
VH: QVKLQESGGGLVQPKGSLKLSCAASGFTFNTYAMNWVRQAPGKGLEWVARIRSKSNNYATFYADSVKDRFTISRDDSQSMLYLQMHNLKTDDTAMYYCVRPSIYYYASGYLDVWGAGTTVTVSS
VL: QIVLSQSPAILSASPGEKVTMTCRTSSSVSYMHWYQQKPGSSPKPWIYATSNLASGVPFRFSGSGSGTSYSLTISRVEAEDAATYYCQQWNSNPPTFGGGTKLEIK
On to B2, for which, in assay [2], the binding result is listed as “binds”. The “stoichiometry N” value in assay [3] was 4 Fabs per NA tetramer.

B3: CD6 Fab2 (other)
VH: QVKLQESGGGLVQPKGSLKLSCAASGFTFNTYAMNWVRQAPGKGLEWVARIRSKSNNYATFYADSVKDRFTISRDDSQSMLYLQMHNLKTDDTAMYYCVRPSIYYYASGYLDVWGAGTTVTVSS
VL: QIVLSQSPAILSASPGEKVTMTCRTSSSVSYMHWYQQKPGSSPKPWIYATSNLASGVPFRFSGSGSGTSYSLTISRVEAEDAATYYCQQWNSNPPTFGGGTKLEIK
notes: F(ab')2 fragment; copies: 2 + 2
On to B3, for which the binding result in assay [2] is given as “binds”.
